Data as given in paper PMC10053435, “Crystal structures of dimeric and heptameric mtHsp60 reveal the mechanism of chaperonin inactivation” (Life Science Alliance, 2023).

B1: naïve Epinephelus coioides mtHsp60 (EcHsp60), with the mitochondrial importing signal (natural protein)
chain: MFRLPTVMKQVRPVCRALAPHLTRAYAKDVKFGADARALMLQGVDLLADAVAVTMGPKGRTVIIEQSWGSPKVTKDGVTVAKSIDLKDKYKNIGAKLVQDVANNTNEEAGDGTTTATVLARAIAKEGFDTISKGANPVEIRRGVMMAVETVIKELKNLSKPVTTPEEIAQVATISANGDVEIGNIISNAMKKVGRKGVITVKDGKTLHDELEIIEGMKFDRGYISPYFINTAKGQKCEFQDAYLLLSEKKISSVQSIVPALEIANQHRKPLVIVAEDVDGEALSTLVLNRLKVGLQVVAVKAPGFGDNRKNQLRDMAVATGGTVFGDEAVGLALEDIQAHDFGKIGEVQITKDDTLLLKGGGSPAEVEKRAAEIVEQLENTTSDYEKEKLNERLAKLSDGVAVLKVGGTSDVEVNEKKDRVTDALNATRAAVEEGIVPGGGCALLRCIPSLDAIQTANADQKIGVEIIRRALRIPAMTIAKNAGVEGSLVVEKILQGSAELGYDAMQGEYVNMVEKGIIDPTKVVRTALLDAAGVASLLSTAEAVVTEIPKEEKEMPGGMGGMGGMGGMGGMGGGMGF
B2: naïve EcHsp60^ΔC (C-terminal GGM repeats truncated, Δ527–552) (domain or fragment)
chain: MFRLPTVMKQVRPVCRALAPHLTRAYAKDVKFGADARALMLQGVDLLADAVAVTMGPKGRTVIIEQSWGSPKVTKDGVTVAKSIDLKDKYKNIGAKLVQDVANNTNEEAGDGTTTATVLARAIAKEGFDTISKGANPVEIRRGVMMAVETVIKELKNLSKPVTTPEEIAQVATISANGDVEIGNIISNAMKKVGRKGVITVKDGKTLHDELEIIEGMKFDRGYISPYFINTAKGQKCEFQDAYLLLSEKKISSVQSIVPALEIANQHRKPLVIVAEDVDGEALSTLVLNRLKVGLQVVAVKAPGFGDNRKNQLRDMAVATGGTVFGDEAVGLALEDIQAHDFGKIGEVQITKDDTLLLKGGGSPAEVEKRAAEIVEQLENTTSDYEKEKLNERLAKLSDGVAVLKVGGTSDVEVNEKKDRVTDALNATRAAVEEGIVPGGGCALLRCIPSLDAIQTANADQKIGVEIIRRALRIPAMTIAKNAGVEGSLVVEKILQGSAELGYDAMQGEYVNMVEKGIIDPTKVVRTALLDAAGVASLLSTAEAVVTEIPKE

Experiments:
[1] = target: the molecule itself; test: SEC; protein homogenised and purified at room temperature (RT, 25°C); Superdex S200pg 16/600, 25 mM Tris-HCl pH 7.6, 150 mM NaCl, 1 ml/min
[2] = target: the molecule itself; test: SEC; protein homogenised and purified at 4°C (LT); Superdex S200pg 16/600, 25 mM Tris-HCl pH 7.6, 150 mM NaCl, 1 ml/min

Protein	stoichiometry N [1]	stoichiometry N [2]
B1	7	2
B2		7
